# Data taken from patent publication US20230057987A1 (published 2023).
# T1: CT45 (CT45A1, A2, A3, A5 to A10); CT45-IP peptide on HLA-A*02:01 (human)
# T1 peptide: KIFEMLEGV
# T2: CT45-IP alanine variant, position 8 peptide on HLA-A*02:01 (human)
# T2 peptide: KIFEMLEAV
# T3: similar peptide SP-05-0001, source protein not stated peptide on HLA-A*02:01 (human)
# T3 peptide: HIMEHLEGV
# T4: similar peptide SP-05-0006, source protein not stated peptide on HLA-A*02:01 (human)
# T4 peptide: KIAELLENV
# T5: similar peptide SP-05-0009, source protein not stated peptide on HLA-A*02:01 (human)
# T5 peptide: KIIDLLPKV
# T6: CT45-IP alanine variant, position 1 peptide on HLA-A*02:01 (human)
# T6 peptide: AIFEMLEGV
# T7: similar peptide SP-05-0008, source protein not stated peptide on HLA-A*02:01 (human)
# T7 peptide: KILDELEKV
# T8: CT45-IP alanine variant, position 5 peptide on HLA-A*02:01 (human)
# T8 peptide: KIFEALEGV
# T9: similar peptide SP-05-0002, source protein not stated peptide on HLA-A*02:01 (human)
# T9 peptide: KIFSGLLKV
# T10: similar peptide SP-05-0003, source protein not stated peptide on HLA-A*02:01 (human)
# T10 peptide: KVTEMLVNV
# T11: similar peptide SP-05-0005, source protein not stated peptide on HLA-A*02:01 (human)
# T11 peptide: KIEEFLEAV
# T12: similar peptide SP-05-0010, source protein not stated peptide on HLA-A*02:01 (human)
# T12 peptide: RIFETVNSV
# T13: similar peptide SP-05-0004, source protein not stated peptide on HLA-A*02:01 (human)
# T13 peptide: KIWEWLVGV
# T14: similar peptide SP-05-0007, source protein not stated peptide on HLA-A*02:01 (human)
# T14 peptide: KIFPALCTV
# B1: TCR-4 (TCR, V domains shown)
# Valpha: QSVAQPEDQVNVAEGNPLTVKCTYSVSGNPYLFWYVQYPNRGLQFLLKYITGDNLVKGSYGFEAEFNKSQTSFHLKKPSALVSDSALYFCAAPRDDKIIFGKGTRLHILP
# Vbeta: GVTQTPKFRVLKTGQSMTLLCAQDMNHEYMYWYRQDPGMGLRLIHYSVGEGTTAKGEVPDGYNVSRLKKQNFLLGLESAAPSQTSVYFCASSYLRTGGNEQFFGPGTRLTVL
# B2: TCR-3 (TCR, V domains shown)
# Valpha: QKITQTQPGMFVQEKEAVTLDCTYDTSDQSYGLFWYKQPSSGEMIFLIYQGSYDEQNATEGRYSLNFQKARKSANLVISASQLGDSAMYFCGYSNYQLIWGAGTKLIIKP
# Vbeta: QVTQNPRYLITVTGKKLTVTCSQNMNHEYMSWYRQDPGLGLRQIYYSMNVEVTDKGDVPEGYKVSRKEKRNFPLILESPSPNQTSLYFCASREGTGGYQPQHFGDGTRLSIL
# B3: TCR-13 (TCR, V domains shown)
# Valpha: QKITQTQPGMFVQEKEAVTLDCTYDTSDQSYGLFWYKQPSSGEMIFLIYQGSYDEQNATEGRYSLNFQKARKSANLVISASQLGDSAMYFCAMSDPIMDTGRRALTFGSGTRLQVQP
# Vbeta: GITQSPKYLFRKEGQNVTLSCEQNLNHDAMYWYRQDPGQGLRLIYYSQIVNDFQKGDIAEGYSVSREKKESFPLTVTSAQKNPTAFYLCASKSRGPNLADTQYFGPGTRLTVL
# B4: TCR-15 (TCR, V domains shown)
# Valpha: KQEVTQIPAALSVPEGENLVLNCSFTDSAIYNLQWFRQDPGKGLTSLLLIQSSQREQTSGRLNASLDKSSGRSTLYIAASQPGDSATYLCAVLLTGKLIFGQGTTLQVKP
# Vbeta: GVTQTPRYLIKTRGQQVTLSCSPISGHRSVSWYQQTPGQGLQFLFEYFSETQRNKGNFPGRFSGRQFSNSRSEMNVSTLELGDSALYLCASSGGPGPSGEQYFGPGTRLTVT
# B5: TCR-1 (TCR, V domains shown)
# Valpha: QTVTQSQPEMSVQEAETVTLSCTYDTSENNYYLFWYKQPPSRQMILVIRQEAYKQQNATENRFSVNFQKAAKSFSLKISDSQLGDTAMYFCAPLGLVAGSARQLTFGSGTQLTVLP
# Vbeta: GVSQDPRHKITKRGQNVTFRCDPISEHNRLYWYRQTLGQGPEFLTYFQNEAQLEKSRLLSDRFSAERPKGSFSTLEIQRTEQGDSAMYLCASSTDITSYEQYFGPGTRLTVT
# B6: TCR-2 (TCR, V domains shown)
# Valpha: QKITQTQPGMFVQEKEAVTLDCTYDTSDQSYGLFWYKQPSSGEMIFLIYQGSYDEQNATEGRYSLNFQKARKSANLVISASQLGDSAMYFCAMREGSDAGGTSYGKLTFGQGTILTVHP
# Vbeta: GVIQSPRHLIKEKRETATLKCYPIPRHDTVYWYQQGPGQDPQFLISFYEKMQSDKGSIPDRFSAQQFSDYHSELNMSSLELGDSALYFCASSPSTGRLNTEAFFGQGTRLTVV
# B7: TCR-9 (TCR, V domains shown)
# Valpha: EDVEQSLFLSVREGDSSVINCTYTDSSSTYLYWYKQEPGAGLQLLTYIFSNMDMKQDQRLTVLLNKKDKHLSLRIADTQTGDSAIYFCAEKETAGNKLTFGGGTRVLVKP
# Vbeta: EPEVTQTPSHQVTQMGQEVILRCVPISNHLYFYWYRQILGQKVEFLVSFYNNEISEKSEIFDDQFSVERPDGSNFTLKIRSTKLEDSAMYFCASTVQSPRTNEQFFGPGTRLTVL
# Target: CT45-IP antigenic peptide (…) in complex with HLA-A*02 presented on cells (peptide-loaded T2 cells; NCIH1703 and A375 tumor cells) (human)
# Assay: cell-based or functional assay
row,Binder,"EC50, half maximal killing capacity (functional avidity; CT45-IP peptide titration on T2 cells, luciferase release)"
1,B1,1.31 nM
2,B2,1.02 nM
3,B3,11.4 nM
4,B4,18.6 nM
5,B5,7.78 nM
6,B6,4.69 nM
7,B7,0.15 nM

# Target: T1, CT45 (CT45A1, A2, A3, A5 to A10); …
# Assay: CT45-IP-HLA-A*02 dextramer on T cells with TCR mRNA; TCR found by tetramer sorting; full-length, on cells
row,Binder,dextramer-positive events
1,B1,39.1%
2,B2,27.2%
3,B3,53.1%
4,B4,22.6%
5,B5,8.9%
6,B6,39.1%
7,B7,44%

# Target: T1, CT45 (CT45A1, A2, A3, A5 to A10); …
# Assay: luciferase release, 24 h, 1:1; CD8+ T cells with TCR mRNA, T2 cells with titrated peptide; full-length, on cells
row,Binder,EC50 of peptide
1,B1,1.31 nM
2,B2,1.02 nM
3,B3,11.4 nM
4,B4,18.6 nM
5,B5,7.78 nM
6,B6,4.69 nM
7,B7,0.15 nM

# Target: CT45-IP-HLA-A*02 dextramer (human)
# Assay: flow cytometry, dextramer staining of TCR-mRNA electroporated T cells, gated on CD3+
row,Binder,"surface expression, % positive events by CT45-IP-HLA-A2*02 dextramer staining"
1,B1,39.1%
2,B2,27.2%
3,B3,53.1%
4,B4,22.6%
5,B5,8.9%
6,B6,39.1%
7,B7,44%

# Target: T2, CT45-IP alanine variant, position 8 …
# Assay: killing
row,Binder,binding result
1,B2,recognises
2,B3,recognises
3,B4,recognises
4,B5,recognises
5,B6,recognises

# Target: T3, similar peptide SP-05-0001, source …
# Assay: killing
row,Binder,binding result
1,B1,no recognition
2,B2,no recognition
3,B3,no recognition
4,B4,no recognition
5,B5,no recognition
6,B6,no recognition
7,B7,no recognition

# Target: T4, similar peptide SP-05-0006, source …
# Assay: killing
row,Binder,binding result
1,B1,no recognition
2,B2,no recognition
3,B3,no recognition
4,B4,no recognition
5,B5,no recognition
6,B6,no recognition
7,B7,no recognition

# Target: T5, similar peptide SP-05-0009, source …
# Assay: killing
row,Binder,binding result
1,B1,no recognition
2,B2,no recognition
3,B3,no recognition
4,B4,no recognition
5,B5,no recognition
6,B6,no recognition
7,B7,no recognition

# Target: T6, CT45-IP alanine variant, position 1 …
# Assay: killing
row,Binder,binding result
1,B1,recognises
2,B2,recognises
3,B6,recognises

# Target: T7, similar peptide SP-05-0008, source …
# Assay: killing
row,Binder,binding result
1,B1,no recognition
2,B2,no recognition
3,B3,no recognition
4,B4,no recognition
5,B5,no recognition
6,B6,no recognition
7,B7,no recognition

# Target: T8, CT45-IP alanine variant, position 5 …
# Assay: killing
row,Binder,binding result
1,B1,recognises
2,B3,recognises

# Target: T9, similar peptide SP-05-0002, source …
# Assay: killing
row,Binder,binding result
1,B1,no recognition
2,B2,no recognition
3,B3,no recognition
4,B4,no recognition
5,B5,no recognition
6,B6,no recognition
7,B7,no recognition

# Target: T10, similar peptide SP-05-0003, source …
# Assay: killing
row,Binder,binding result
1,B1,no recognition
2,B2,no recognition
3,B3,no recognition
4,B4,no recognition
5,B5,no recognition
6,B6,no recognition
7,B7,no recognition

# Target: T11, similar peptide SP-05-0005, source …
# Assay: killing
row,Binder,binding result
1,B1,no recognition
2,B2,no recognition
3,B3,no recognition
4,B4,no recognition
5,B5,no recognition
6,B6,no recognition
7,B7,no recognition

# Target: T12, similar peptide SP-05-0010, source …
# Assay: killing
row,Binder,binding result
1,B1,no recognition
2,B2,no recognition
3,B3,no recognition
4,B4,no recognition
5,B5,no recognition
6,B6,no recognition
7,B7,no recognition

# Target: T13, similar peptide SP-05-0004, source …
# Assay: killing
row,Binder,binding result
1,B1,no recognition
2,B2,no recognition
3,B3,no recognition
4,B4,no recognition
5,B5,no recognition
6,B6,no recognition

# Target: T14, similar peptide SP-05-0007, source …
# Assay: killing
row,Binder,binding result
1,B1,no recognition
2,B2,no recognition
3,B3,no recognition
4,B4,no recognition
5,B5,no recognition
6,B6,no recognition
7,B7,no recognition
